Among the data in patent publication EP4755920A1 are IC50 values, retold here.

For orientation: IC50 means the midpoint of a concentration-inhibition curve. Lower therefore signals higher potency.

The target of this test is hIL4Rα-ECD(26-232)-mFc (human). Description: competition ELISA, hIL4R-ECD-mFc captured by anti-mFc, biotinylated human IL4 as competitor. (In general: An ELISA detects its analyte on a solid surface through an enzyme-linked reagent.)

In turn, Isotype (antibody) showed an IC50 of 9.95 nM.
